Paper doi:10.1101/2025.03.19.644124
pKd: −log10 of the molar value.

Experiments:
Experiment in all cases: BLI
[1] = target: biotinylated PpBRCA2-BRC2 peptide (Physcomitrium patens)
[2] = target: biotinylated PpBRCA2-BRC1 peptide (Physcomitrium patens)
[3] = target: 6His-PpBRCA2-Cter (amino acids 251 to 391) (Physcomitrium patens)
[4] = target: biotinylated PpBRCA2-BRC4 peptide (Physcomitrium patens)

pKd [1]: 6.10
pKd [2]: 6.40
pKd [3]: 8.37
pKd [4]: 6.40
Substance: recombinant PpRAD51-2, tag-free (natural protein)
